Source: patent US20210347873A1 (SHANGHAI PHARMAEXPLORER, published 2021)
Values belong to the binder of their own block, whether it stands above or below them.

Legend:
[1] = biological target: T1, human APRIL protein (human, UniProt O75888 105-250, limits assumed); assay: ELISA, coated APRIL; antibody 0.534 nM
T1 construct: Bought protein; also called recombinant APRIL protein
T1 sequence (looked up): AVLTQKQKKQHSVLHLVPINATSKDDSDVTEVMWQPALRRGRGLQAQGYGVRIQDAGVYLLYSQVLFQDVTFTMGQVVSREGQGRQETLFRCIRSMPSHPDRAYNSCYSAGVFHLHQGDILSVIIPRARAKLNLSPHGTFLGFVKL
Procedure: (§1) To test whether the BLyS antibody cross-reacted with human APRIL protein, APRIL protein (purchased from R & D Systems) was first diluted to a final concentration of 1.0 μg/mL with PBS, and then 50 μL of which per well was aliquoted into a 96-well ELISA plate, and the plate was subsequently sealed with plastic film and incubated at 4° C. overnight. On the next day the plate was rinsed four times with the plate washing buffer [PBS buffer containing 0.0500 (v/v) Tween20] and a blocking solution [PBS buffer containing 0.05 (v/v) Tween20 and 1 (w/w) BSA] was added, then the protein was blocked at 37° C. for 2 hours. The blocking solution was removed and 100 μL per well of the lead antibodies prepared in Embodiment 1 and 2 were added in. After incubation for 1 hour at 37° C., the plate was rinsed four times with the plate washing buffer [PBS buffer containing 0.05 (v/v) Tween20]. HRP-labeled (horseradish peroxidase) secondary antibody (purchased from Sigma) was added in and incubated at 37° C. for 1 hour. The plate was then rinsed four times with the plate washing buffer [PBS buffer containing 0.050 (v/v) Tween20]. 100 μL of TMB substrate was aliquoted into each well and after incubation at room temperature for 5 minutes, 100 μL of stop solution (1.0 N HCl) was aliquoted into each well. A₄₅₀ₙₘ values were read via an ELISA plate reader (SpectraMax M5e purchased from Molecular Devices) and the results were shown in FIGS. 6A-6B and Table 11. […] As used herein, the IgG control is human IgG and the data in the table is GD number at 450 nm.

[2] = biological target: T1, human APRIL protein; assay: ELISA, coated APRIL; antibody 2.67 nM
Procedure: as §1

[3] = biological target: T1, human APRIL protein; assay: ELISA, coated APRIL; antibody 0.0213 nM
Procedure: as §1

[4] = biological target: T1, human APRIL protein; assay: ELISA, coated APRIL; antibody 0.107 nM
Procedure: as §1

[5] = biological target: T1, human APRIL protein; assay: ELISA, coated APRIL; antibody 13.3 nM
Procedure: as §1

[6] = biological target: T1, human APRIL protein; assay: ELISA, coated APRIL; antibody 66.7 nM
Procedure: as §1

[7] = biological target: T1, human APRIL protein; assay: ELISA, coated APRIL; antibody 0 nM (blank)
Procedure: as §1

[8] = biological target: T1, human APRIL protein; assay: ELISA, coated APRIL; antibody 0.00427 nM
Procedure: as §1

[9] = biological target: T2, cynomolgus BLyS (full length, arginine to histidine at position 132) on CHO-K1 cells (cynomolgus, UniProt Q9Y275 1-285 (human entry)); assay: flow cytometry, CHO-K1 cynoBLyS cells, antibody 13.3 nM
T2 construct: also called cyno BLyS; CHO-K1 cynoBLyS
T2 chain: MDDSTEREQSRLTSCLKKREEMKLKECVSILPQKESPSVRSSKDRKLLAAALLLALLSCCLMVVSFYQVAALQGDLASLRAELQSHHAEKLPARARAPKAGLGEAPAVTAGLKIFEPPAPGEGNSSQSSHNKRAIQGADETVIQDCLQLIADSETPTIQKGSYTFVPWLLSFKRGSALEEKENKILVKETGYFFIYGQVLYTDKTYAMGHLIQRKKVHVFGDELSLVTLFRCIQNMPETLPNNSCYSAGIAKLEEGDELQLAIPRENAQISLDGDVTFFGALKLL
Procedure: (§2) The medium was aspirated completely, and the cells were rinsed once with PBS buffer (purchased from Invitrogen) and then treated with cell dispersion solution (TrypLE™ Express Enzyme, purchased from Life technology) and collected. The detailed steps are as follows: the cells were rinsed once with PBS buffer, after counting, the cells were diluted to 2×10⁶ cells/ml with PBS buffer, blocked with 2% (w/w) fetal bovine serum and incubated on ice for 30 minutes. 200 μL of which per well was aliquoted into a 96-well FACS plate and centrifuged at 2000 rpm at 4° C., then each 100 μL of the lead antibodies obtained from Embodiment 1 and 2 were aliquoted into each well and incubated on ice for 1 hour. […] After centrifuged and rinsed 3 times with FACS buffer, cells were suspended with 200 μL of FACS buffer and the results were detected and analyzed by FACS (FACS Calibur, purchased from BD). It was shown in Tables 12-13 that the lead antibody could bind to human BLyS protein on the cell surface and the lead antibody could cross-react with cynomolgus BLyS. The data in the table is MFI, the average fluorescence intensity of the cell population.

[10] = biological target: T3, human BLyS (full length, arginine to histidine at position 132) on CHO-K1 cells (human, UniProt Q9Y275 1-285); assay: flow cytometry, CHO-K1 hBLyS cells, antibody 0 nM
T3 construct: also called hBLyS; CHO-K1 hBLyS
Procedure: as §2

[11] = biological target: T3, human BLyS (full length, arginine to …); assay: flow cytometry, CHO-K1 hBLyS cells, antibody 0.0213 nM
Procedure: as §2

[12] = biological target: T2, cynomolgus BLyS (full length, arginine …); assay: flow cytometry, CHO-K1 cynoBLyS cells, antibody 2.67 nM
Procedure: as §2

[13] = biological target: T3, human BLyS (full length, arginine to …); assay: flow cytometry, CHO-K1 hBLyS cells, antibody 0.107 nM
Procedure: as §2

[14] = biological target: T2, cynomolgus BLyS (full length, arginine …); assay: flow cytometry, CHO-K1 cynoBLyS cells, antibody 0.00427 nM
Procedure: as §2

[15] = biological target: T3, human BLyS (full length, arginine to …); assay: flow cytometry, CHO-K1 hBLyS cells, antibody 2.67 nM
Procedure: as §2

[16] = biological target: T3, human BLyS (full length, arginine to …); assay: flow cytometry, CHO-K1 hBLyS cells, antibody 66.7 nM
Procedure: as §2

[17] = biological target: T3, human BLyS (full length, arginine to …); assay: flow cytometry, CHO-K1 hBLyS cells, antibody 13.3 nM
Procedure: as §2

[18] = biological target: T2, cynomolgus BLyS (full length, arginine …); assay: flow cytometry, CHO-K1 cynoBLyS cells, antibody 0.534 nM
Procedure: as §2

[19] = biological target: T2, cynomolgus BLyS (full length, arginine …); assay: flow cytometry, CHO-K1 cynoBLyS cells, antibody 0 nM
Procedure: as §2

[20] = biological target: T2, cynomolgus BLyS (full length, arginine …); assay: flow cytometry, CHO-K1 cynoBLyS cells, antibody 0.0213 nM
Procedure: as §2

[21] = biological target: mouse BLyS protein (mouse, UniProt Q9WU72 69-309); assay: cell-based or functional assay
[22] = biological target: T2, cynomolgus BLyS (full length, arginine …); assay: flow cytometry, CHO-K1 cynoBLyS cells, antibody 66.7 nM
Procedure: as §2

[23] = biological target: T3, human BLyS (full length, arginine to …); assay: flow cytometry, CHO-K1 hBLyS cells, antibody 0.534 nM
Procedure: as §2

[24] = biological target: T2, cynomolgus BLyS (full length, arginine …); assay: flow cytometry, CHO-K1 cynoBLyS cells, antibody 0.107 nM
Procedure: as §2

[25] = biological target: T3, human BLyS (full length, arginine to …); assay: flow cytometry, CHO-K1 hBLyS cells, antibody 0.00427 nM
Procedure: as §2

T3 sequence (Q9Y275 whole entry R130H): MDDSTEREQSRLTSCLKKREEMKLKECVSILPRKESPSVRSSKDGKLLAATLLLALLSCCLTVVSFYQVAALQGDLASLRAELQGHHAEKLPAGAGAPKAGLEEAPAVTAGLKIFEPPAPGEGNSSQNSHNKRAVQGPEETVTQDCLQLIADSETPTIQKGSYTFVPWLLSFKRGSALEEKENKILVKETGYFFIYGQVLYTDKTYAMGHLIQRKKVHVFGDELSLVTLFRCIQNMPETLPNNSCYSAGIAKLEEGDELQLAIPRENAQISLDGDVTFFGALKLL
mouse BLyS protein, sequence (Q9WU72 69-309): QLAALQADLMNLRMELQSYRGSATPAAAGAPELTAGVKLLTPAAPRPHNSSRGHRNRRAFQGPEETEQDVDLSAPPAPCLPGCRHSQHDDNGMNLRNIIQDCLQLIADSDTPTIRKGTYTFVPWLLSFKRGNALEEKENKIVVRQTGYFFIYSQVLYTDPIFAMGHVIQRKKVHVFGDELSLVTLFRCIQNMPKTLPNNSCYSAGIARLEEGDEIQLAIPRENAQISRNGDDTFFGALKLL

B2: 35E6F7C3 (antibody, V domains shown)
VH: EVQLQQSGAELVKPGASVKLSCTAAGFNIQDTYIHWVKQRPEQGLEWIGRIDPANANTVYDPKFQGKATITADTSSNTAYLQVSSLTSEDTAVYYCASPVITAGFAYWGQGTLVTVSA
VL: QIVLTQSPAIMSASPGEKVTMTCGASSSVNYVHWYQQKSGTSPKRWIYDTSKLASGVPARFSGSGSGTSYSLTISSMEAEDAATYYCQQWTRSPLTFGAGTKVELK
notes: Mouse hybridoma monoclonal antibody purified on Protein G
- MFI [9]: 1080 MFI
- MFI [10]: 52.4 MFI
- MFI [11]: 54.9 MFI
- MFI [12]: 953 MFI
- MFI [13]: 110 MFI
- MFI [14]: 32.6 MFI
- MFI [15]: 437 MFI
- MFI [16]: 609 MFI
- MFI [17]: 528 MFI
- MFI [18]: 501 MFI
- MFI [19]: 20.3 MFI
- MFI [20]: 66.3 MFI
- mouse B lymphocyte proliferation (OD450 nm), antibody 0 nM [21]: 2160 OD450 nm
- mouse B lymphocyte proliferation (OD450 nm), antibody 0.000256 nM [21]: 2160 OD450 nm
- mouse B lymphocyte proliferation (OD450 nm), antibody 0.00128 nM [21]: 2340 OD450 nm
- mouse B lymphocyte proliferation (OD450 nm), antibody 0.0064 nM [21]: 2520 OD450 nm
- mouse B lymphocyte proliferation (OD450 nm), antibody 0.032 nM [21]: 2430 OD450 nm
- mouse B lymphocyte proliferation (OD450 nm), antibody 0.16 nM [21]: 2410 OD450 nm
- mouse B lymphocyte proliferation (OD450 nm), antibody 0.8 nM [21]: 2530 OD450 nm
- mouse B lymphocyte proliferation (OD450 nm), antibody 4 nM [21]: 2520 OD450 nm
- mouse B lymphocyte proliferation (OD450 nm), antibody 20 nM [21]: 2560 OD450 nm
- mouse B lymphocyte proliferation (OD450 nm), antibody 100 nM [21]: 2490 OD450 nm
- MFI [22]: 1130 MFI
- MFI [23]: 247 MFI
- MFI [24]: 177 MFI
- MFI [25]: 39.2 MFI

B3: 20D1B6E9E5 (antibody, V domains shown)
VH: EVQLQQSVAELVRPGASVKLSCTASDFNIKNTYIHWVKQRPEQGLEWIGRIDPVNGNTKYAPKFQDKATIIVDTYSNTAYLQLSSLASEDTAVYYCARWPITTIVATDWYFDVWGTGTTVTVSS
VL: DVLMTQTQLALPVRLGEQASISCRSSQSIVNSNGNTYLEWYLQKPGQSPKLLIYKVSNRFSGVPDRFSGSGSGTDFTLKISRVEAEDLGVYYCFQGSHVPWTFGGGTKLEIK
notes: as for B2
- MFI [9]: 978 MFI
- MFI [10]: 31.8 MFI
- MFI [11]: 83.6 MFI
- MFI [12]: 933 MFI
- MFI [13]: 194 MFI
- MFI [14]: 50.4 MFI
- MFI [15]: 474 MFI
- MFI [16]: 535 MFI
- MFI [17]: 498 MFI
- MFI [18]: 808 MFI
- MFI [19]: 19.8 MFI
- MFI [20]: 118 MFI
- mouse B lymphocyte proliferation (OD450 nm), antibody 0 nM [21]: 2260 OD450 nm
- mouse B lymphocyte proliferation (OD450 nm), antibody 0.000256 nM [21]: 2090 OD450 nm
- mouse B lymphocyte proliferation (OD450 nm), antibody 0.00128 nM [21]: 2170 OD450 nm
- mouse B lymphocyte proliferation (OD450 nm), antibody 0.0064 nM [21]: 2180 OD450 nm
- mouse B lymphocyte proliferation (OD450 nm), antibody 0.032 nM [21]: 2380 OD450 nm
- mouse B lymphocyte proliferation (OD450 nm), antibody 0.16 nM [21]: 2120 OD450 nm
- mouse B lymphocyte proliferation (OD450 nm), antibody 0.8 nM [21]: 2480 OD450 nm
- mouse B lymphocyte proliferation (OD450 nm), antibody 4 nM [21]: 2200 OD450 nm
- mouse B lymphocyte proliferation (OD450 nm), antibody 20 nM [21]: 2240 OD450 nm
- mouse B lymphocyte proliferation (OD450 nm), antibody 100 nM [21]: 1920 OD450 nm
- MFI [22]: 1030 MFI
- MFI [23]: 402 MFI
- MFI [24]: 349 MFI
- MFI [25]: 46.8 MFI

The remaining lines, values ahead:

- OD450 nm [1]: 0.0556
- OD450 nm [2]: 0.0707
- OD450 nm [3]: 0.0537
- OD450 nm [4]: 0.0705
- OD450 nm [5]: 0.182
- OD450 nm [6]: 0.62
- OD450 nm [7]: 0.0533
- OD450 nm [8]: 0.0535
B1: 97E7B3F2 (antibody, V domains shown)
VH: EVQLQQSGPELVKSGASVKISCKASGYTFTDHKMHWVKQSHGKSLEWIGYISPYNGGTGYNQKFKSKVTLTVDISSSTAYMELRSLTSEDSAVYYCARWGFYDVMDSWGQGTSVTVSS
VL: DVLLTQTPLSLPVSLGDQASISCRSSQTIVHIIGDTYLEWYLQKPGQSPKLLIYKVSNRFSGVPDRFSGSGAGTDFTLKISRVEAEDLGVYYCFQGSHVPRTFGGGTKLEIK

- OD450 nm [1]: 0.0584
- OD450 nm [2]: 0.0746
- OD450 nm [3]: 0.0568
- OD450 nm [4]: 0.0551
- OD450 nm [5]: 0.171
- OD450 nm [6]: 0.57
- OD450 nm [7]: 0.0568
- OD450 nm [8]: 0.0546
B4: 93C6F10D3 (antibody, V domains shown)
VH: EVQLVESGGGLVTPGGSLKLSCVASGFAFSTYGMSWVRQTPERRLEWVAYISGGGGSIYYPDSVKGRFTISRDNAKNILYLQMSSLKSEDTAMYHCTRHPDLLLRYDYALDHWGQGTSVTVSS
VL: DIQMTQSPASLSASVGETVTITCRASENIHIYLAWYQQKQGKSPQLLVYNGKTLADGVPSRFSGSGSGTQYSLKINTLQPEDFGNYYCQHFWNSTWTFGGGTKLEIK
